From the RNAGym collection of RNA variant scans (doi:10.1073/pnas.2313332121)
Variants at the floor of the assay were thinned out.

B1: TPR 5TU (parent)
chain: GGAUCUUCUCGAUCUAACAAAAAAGACAAAUCUGCCACAAAGCUUGAGAGCAUCUUCGGAUGCAGAGGCGGCAGCCUUCGGUGGCGCGAUAGCGCCAACGUUCUCAACUAUGACACGCAAAACGCGUGCUCCGUUGAAUGGAGUUUAUCAUG

Variants of: B1
Assay: polymerase ribozyme fitness, log enrichment relative to wild type (log ratio); higher = more active; in vitro selection for triplet polymerase activity
Method in brief: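 For each subunit of a heterodimeric triplet polymerase ribozyme, a mutant library was built by PCR and transcribed, then taken through a single in vitro selection round in triplicate. Selection involved annealing to a biotinylated primer, the partner subunit and triplets, incubation frozen at −7 °C, gel excision of extended constructs, capture on streptavidin beads and RT-PCR. Genotypes were retained after Illumina sequencing of inputs and outputs only with ≥10 input reads and ≥1 read in each output. Fitness is defined as the logarithm of a genotype's enrichment relative to wild-type enrichment, using inverse-variance-weighted averages across replicates, with the logarithm taken to base 2.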

Polymerase ribozyme fitness (log ratio), -2.15:
U45A G126A

Polymerase ribozyme fitness (log ratio), -3.32:
U45G A52G U82C U101G C131U

Polymerase ribozyme fitness (log ratio), -4.13:
G42U C108U C125U A138U U148A

Polymerase ribozyme fitness (log ratio), -1.08:
U45C U55A

Polymerase ribozyme fitness (log ratio), -4.19:
U44C C96U C103G A115C
U44A C76U

Polymerase ribozyme fitness (log ratio), -3.91:
U45G A47C A142G

Polymerase ribozyme fitness (log ratio), -4:
U44C G59A A91U

Polymerase ribozyme fitness (log ratio), -4.1:
U45G G84U A113U

Polymerase ribozyme fitness (log ratio), -4.18:
U44A U82A

Polymerase ribozyme fitness (log ratio), -0.848:
U45G G83A

Polymerase ribozyme fitness (log ratio), -3.64:
U45G C51U C95A C125U

Polymerase ribozyme fitness (log ratio), -4.08:
U44A C75G C96U

Polymerase ribozyme fitness (log ratio), -3.51:
U45A G126U

Polymerase ribozyme fitness (log ratio), -2.81:
U45A C93U A147U

Polymerase ribozyme fitness (log ratio), -3.81:
C43G G94A

Polymerase ribozyme fitness (log ratio), -3.41:
U45A G92C U144A

Polymerase ribozyme fitness (log ratio), -3.98:
U45G C93A C95U
U45A U55G U56G C87U G92C

Polymerase ribozyme fitness (log ratio), -2.19:
U45G C54U A119U U146G

Polymerase ribozyme fitness (log ratio), -1.95:
U45G C69A

Polymerase ribozyme fitness (log ratio), -3.52:
U45C C93A

Polymerase ribozyme fitness (log ratio), ≤ -4.2:
U44G U45G C72G
G42U G84U G117U C118G A142G
U44G U61C
U45A U102C C105U A119C G143A
U44G G67U A91U A115U A120C
U45G A66U U77C A107G G117U
U44G U56A C79A G124U
C43U G50U U109A A150U
U44A G117U
U44A A49U C54U G59U G92A A106U
U45A A52G U82G A115G G136U G141A U151G
C43U G83U G92A
G42U G59U G84A C85U C103G A119G
G42U G65A C95U U139G
U45A C69A G88C A97C C125G
C43U A138C
U45A G58A G59C A60G G133A
U45C G70C A91G C99U G136C
U44A U104A A115G
U44C G50U U101G C131U U139C C149U
U44A G58U G70C C76A A91G A115C
C43U C103G
C43G G83U A97U U104C C116U A137C
U45G C57U G70C C76A A91G C93A
U45A G46C U56A G84U G88U U90G C99A
U45G C76A G86A G141C C149G
U44A C72G C79A A150C
C43A U53A C57A C95U
C43U C54G G92A U148G C149U
U44G U45G C72G U144C A147G
C43A G50A C72U G84U U90A C103A G141U
U45A C54A C95A A113G C129A
C43U A47U G59A C75A C93U G126C G133A
C43G G50U U61C G86A C95U C125U U146G
C43A C75U A106U C108U C123G G141A
C43A A52C C75U U90G C95U C96G C114G U144G
U45A A49C G84A
C43G G50C C85A C96A C108U G124A
U44C C85A A91U U127G
U45A A73U G83A G128U U151A
U44A C57A U82C C95A
C43U U55A C87U
U45A C72U
C43G C57A G59C C72A C79A A138G U145A
U45A C51A G84A
U45A A66U G71A
U45G C76A C129G U134G
U45C G80C C85U C87G G92A U144G
U45A G67C G84U C108U A120U
U44G A52C U77C G83A C99A C118A U145G
U44C G58A A64G C93G A119G
C43G C105A C123G U148A
U44A U82G G84C C87G A113C C118U
U45G G86U C87A
C43U G50U U55A C76U G136A G152U
U45C U77G C79G
U45A A115C
U45G G59C C99A U151G
U45A A121G C131G G140U
U44G A89U U144C
U44G C75U A89G
U45A A47U G65C A66U G86C C87G C131G
U44A C79G C85A U111G G133C
C43A C63U U90A
C43A A52C G94A
U45A C75U U90A C93U A119U G141C
U45G C87U U139A
C43U G50C C75G C79G G84A
G42U U56A G58A C76U C95G A98G
U44G G58C G59C U61A G94C
U44A C87A U90C C93G C105G A122G
C43A G88A
G42U U55G G59A G88U C96G A98G C118G
G42U G84U U134C U139G
U44G C54U C85G G117U A122U
C43A G58C C76A U102C G141A
C43U G67U
C43U A52U C85G G133U
U45A A49U
U44G G59A A60C G83A C95G C103G
U44A U53A G58U G83U U102G A122U
G42U U45A U56A G83A A121U
U44A U45A C51U C95A C103G
C43G C69A
U44A U53C G86A A147C
U44G A73U C85U U109G
U44A U53G C105U C116G G141C
U45A A73G G83C C85U
U44G A60U C99G U111G G141C
C43U C54A U55C C85U C99G A147G
U44A U61G A66C A91U C132U G141C
U45A G46A U55C A66G U77G U82A C103G U135C U145C
U45A U82A A106G A122G U148G
U44G G48A G84A
C43A G58C G81C C95U C96A A122U G126C G143C
U44A C87A G126U
U45A U56G A73G C96G C99G A107U G140A
U44G G88C C108G U144C C149U
U45G C54A U55A C85G G133U
U44G G143C
C43U C54U U56G U78C C85G C93G G133A G136U G140U
U45A U148G C149G
C43U U56A C87A G152U
C43U U61A G86U A142G A147U
C43A U44G A64C C118G C131G A137G G152U
U45A A52U U56A C76U
C43U G62A A119U U134A
U45A G65A G86U
U45A U82G C129A U139A U145G
U44A A47U C72G G86C A91C
U44A A91G U135C U144C
G42U U53C C95G
C43G U55A U61G G86A A89G A122U
U44G A91C G126A G143C
C43U G58C C95A U102C C103G C105G A110U
U45A A52C G71A C99A G133U U145G
U44A U53G G67A U78A G81C G88A G92C A138U
C43G U56G C96U U139G U148G
U45A G88C
U45C C57G G59U A66U G94A
U45A U55A U61A C63A U77A C131A A150G U151A
C43U C75A C79U G86U C87U G117U A150C
U44A A49G
C43U A73G
U44A G48A G58C G83A
U45G A47G C54U C93G
C43A C57U C76G C85A G86A G140A
U45G A66C C76A G86U C96U
C43U C125G U151G

Polymerase ribozyme fitness (log ratio), -4.17:
C43A U44A C118U
G42U A106C
U44A C85U

Polymerase ribozyme fitness (log ratio), -4.06:
U45A G92A U127C G128A U130G
U44A A49C

Polymerase ribozyme fitness (log ratio), -3.95:
U45A C51U C54U G92U

Polymerase ribozyme fitness (log ratio), -0.959:
U45C A119C

Polymerase ribozyme fitness (log ratio), -4.15:
C43U C95A
C43U C79A
C43U G86U

Polymerase ribozyme fitness (log ratio), -4.02:
U45G G88A

Polymerase ribozyme fitness (log ratio), -2.44:
U45A C116U

Polymerase ribozyme fitness (log ratio), -3.15:
U45G A52U

Polymerase ribozyme fitness (log ratio), -3.99:
U44A G46C C75G U102A A120U U130G
U45G C87U U101C

Polymerase ribozyme fitness (log ratio), -3.79:
C43U C57U
